Measured values: patent publication US20180282719A1 (published 2018)
Numbering of substitutions follows the chain as printed. Blank lines part the entries; values can stand above or below the binder they belong to.

How the values were obtained:
[1] = biological target: T1, recombinant soluble human IL-6 receptor (SR344) (human, UniProt P08887 20-344, biotinylated (sites not given) where immobilized via streptavidin or used in phage ELISA); test: SPR Biacore T100, antibody on protein A/G chip, SR344 analyte, pH 5.8, 37 C
T1 construct: also called soluble IL-6 receptor; membrane-type IL-6 receptor (when biotinylated and immobilized on the chip)
T1 sequence (looked up): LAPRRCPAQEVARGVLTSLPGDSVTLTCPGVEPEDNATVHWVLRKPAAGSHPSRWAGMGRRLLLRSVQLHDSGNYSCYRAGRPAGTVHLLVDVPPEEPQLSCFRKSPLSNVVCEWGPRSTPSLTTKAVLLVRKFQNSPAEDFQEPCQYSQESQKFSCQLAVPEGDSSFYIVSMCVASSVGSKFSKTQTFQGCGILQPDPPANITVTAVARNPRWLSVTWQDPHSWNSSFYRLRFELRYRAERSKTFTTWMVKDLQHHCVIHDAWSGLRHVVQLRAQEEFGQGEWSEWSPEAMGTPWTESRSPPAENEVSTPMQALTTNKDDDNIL
Method: (§1) Kinetic analyses of antigen-antibody reactions at pH 5.8 and pH 7.4 were carried out using a Biacore™ T100 surface plasmon resonance system (GE Healthcare) on the four antibodies: humanized PM1 antibody (WT) and H3pI/L73, CLH5/L73, and H170/L82 produced in Examples 2 and 4 (buffer: 10 mM MES (pH 7.4 or pH 5.8), 150 mM NaCl, and 0.05% TWEEN® 20 (polyoxyethelene sorbitan monolaurate)). Various antibodies were bound onto a sensor chip immobilized with recomb-protein A/G (Pierce) by amine coupling. SR344 adjusted to concentrations of 9.8 to 400 nM was injected to the chip as an analyte. […] All the measurements were carried out at 37° C. Association rate constants kₐ (1/Ms) and dissociation rate constants kd (1/s) were calculated using Biacore T100™ Evaluation Software (GE Healthcare), and dissociation constants KD (M) were calculated on the basis of those values (Table 5). Moreover, the ratio of the affinities at pH 5.8 and pH 7.4 were calculated for each clone to evaluate pH-dependent binding. All the measurements were carried out at 37° C.

[2] = biological target: T1, recombinant soluble human IL-6 receptor …; test: SPR Biacore T100, biotinylated SR344 on streptavidin chip (model of membrane IL-6 receptor), antibody 0.5 ug/mL as analyte, bound at pH 7.4, dissociation at pH 5.8, 37 C
Method: The binding to membrane IL-6 receptor was evaluated by evaluating the binding to the IL-6 receptor immobilized onto a sensor chip. SR344 was biotinylated according to a method known to persons skilled in the art, and the biotinylated SR344 was immobilized on the sensor chip via streptavidin by utilizing the affinity between streptavidin and biotin. All the measurements were carried out at 37° C., and the mobile phase buffer contained 10 mM MES (pH 5.8), 150 mM NaCl and 0.05% TWEEN® 20 (polyoxyethelene sorbitan monolaurate). The pH-dependent binding clones were injected therein under the condition of pH 7.4 and allowed to bind to SR344 (injection sample buffer: 10 mM MES (pH 7.4), 150 mM NaCl, 0.05% TWEEN® 20 (polyoxyethelene sorbitan monolaurate)), and the pH-dependent dissociation of each clone at the mobile phase pH of 5.8 was observed (FIG. 10).
The dissociation rate […]) at pH 5.8 was calculated using Biacore T100™ Evaluation Software (GE Healthcare) by fitting only the dissociation phase at pH 5.8, where 0.5 μg/mL of the sample was bound in 10 mM MES (pH 7.4), 150 mM NaCl, and 0.05% TWEEN® 20 (polyoxyethelene sorbitan monolaurate), and dissociated in 10 mM MES (pH 5.8), 150 mM NaCl, and 0.05% TWEEN® 20 (polyoxyethelene sorbitan monolaurate). Similarly, the dissociation rate (kd(1/s)) at pH 7.4 was calculated using Biacore T100™ Evaluation Software (GE Healthcare) by fitting only the dissociation phase at pH 7.4, where 0.5 μg/mL of the sample was bound in 10 mM MES (pH 7.4), 150 mM NaCl, and 0.05% TWEEN® 20 (polyoxyethelene sorbitan monolaurate), and dissociated in 10 mM MES (pH 7.4), 150 mM NaCl, and 0.05% TWEEN® 20 (polyoxyethelene sorbitan monolaurate).

[3] = biological target: T1, recombinant soluble human IL-6 receptor …; test: SPR Biacore T100, biotinylated SR344 on streptavidin chip (model of membrane-type IL-6 receptor), antibody 0.25 ug/mL as analyte, 37 C
Method: Binding to the membrane-type IL-6 receptor was evaluated by evaluating binding to the IL-6 receptor immobilized on a sensor chip. SR344 was biotinylated in accordance with a method known among persons with ordinary skill in the art, and the biotinylated SR344 was immobilized on the sensor chip via streptavidin using the affinity between streptavidin and biotin. All the measurements were carried out at 37° C. The mobile phase buffer was 10 mM MES (pH 5.8), 150 mM NaCl and 0.05% TWEEN® 20 (polyoxyethelene sorbitan monolaurate).
The pH-dependently-binding clones were injected under the condition of pH 7.4 to allow them to bind to SR344, and then, the pH-dependent dissociation of each clone at the pH of the mobile phase, pH 5.8, was observed. The results are shown in FIG. 21 (results for Fv1-M71, Fv1-M73, Fv3-M71, and Fv3-M73 are shown in FIG. 21, while results for other clones are shown in FIGS. 17 and 19). Analyses were carried out in the same manner as in Example 10 and the pH dependencies of the dissociation rate constants of all of the eleven types of clones are shown in Table 12.

[4] = biological target: T1, recombinant soluble human IL-6 receptor …; test: SPR Biacore T100, biotinylated SR344 on streptavidin chip (model of membrane-type IL-6 receptor), antibody as analyte, bound at pH 7.4, dissociation at pH 7.4, 37 C
[5] = biological target: T1, recombinant soluble human IL-6 receptor …; test: SPR Biacore T100, antibody on protein A/G chip, SR344 analyte, 37 C, ratio of pH 5.8 to pH 7.4
Method: as §1

Kd [1]: 0.057 µM | koff [1]: 0.0097 s⁻¹ | kon [1]: 170000 M⁻¹ s⁻¹ | koff [2]: 0.00378 s⁻¹ | kd (pH 5.8)/kd (pH 7.4) [3]: 2.59 | koff [4]: 0.00026 s⁻¹ | KD (pH 5.8)/KD (pH 7.4) [5]: 41.3
B1: H3pI/L73 (antibody, IgG1, V domains shown)
VH: QVQLQESGPGLVKPSETLSLTCAVSGHSISHDHAHSWVRQPPGEGLEWIGYISYSGITNYNPSLKGRVTISRDTSKNQFSLKLSSVTAADTAAYYCARSLARTTAMDYWGEGTLVTVSS
VL: DIQMTQSPSSLSASVGDSVTITCQASQHISSHLNWYQQKPGKAPELLIYYGSHLHSGVPSRFSGSGSGTDFTFTISSLEAEDAATYYCGQGNRLPYTFGQGTKVEIE
notes: tested as IgG1; also called H3pI/L73-IgG1; H3pl/L73

Kd [1]: 0.64 µM | koff [1]: 0.017 s⁻¹ | kon [1]: 26000 M⁻¹ s⁻¹ | koff [2]: 0.00144 s⁻¹ | KD (pH 5.8)/KD (pH 7.4) [5]: 394
B2: H170/L82 (antibody, IgG1, V domains shown)
VH: B1 VH with D32H, N59H, S63H, S99V, T103I, Y108H
VL: B1 VL with H28D
notes: expressed and purified as IgG (IgG1); also called H170/L82-IgG1

kd (pH 5.8)/kd (pH 7.4) [3]: 5.56 | koff [4]: 0.00047 s⁻¹
B3: Fv4-IgG1 (antibody)
heavy: not shown
light: DIQMTQSPSSLSASVGDSVTITCQASTDISSHLNWYQQKPGKAPELLIYYGSHLLSGVPSRFSGSGSGTDFTFTISSLEAEDAATYYCGQGNRLPYTFGQGTKVEIERTVAAPSVFIFPPSDEQLKSGTASVVCLLNNFYPREAKVQWKVDNALQSGNSQESVTEQDSKDSTYSLSSTLTLSKADYEKHKVYACEVTHQGLSSPVTKSFNRGEC
notes: VH3-IgG1 / VL3-CK

Kd [1]: 0.005 µM | koff [1]: 0.0038 s⁻¹ | kon [1]: 760000 M⁻¹ s⁻¹ | koff [2]: 0.000715 s⁻¹ | kd (pH 5.8)/kd (pH 7.4) [3]: 1 | koff [4]: 0.00025 s⁻¹ | KD (pH 5.8)/KD (pH 7.4) [5]: 2.4
B4: humanized PM1 antibody (wild type, WT) (antibody, human IgG1, kappa, V domains shown)
VH: QVQLQESGPGLVRPSQTLSLTCTVSGYSITSDHAWSWVRQPPGRGLEWIGYISYSGITTYNPSLKSRVTMLRDTSKNQFSLRLSSVTAADTAVYYCARSLARTTAMDYWGQGSLVTVSS
VL: DIQMTQSPSSLSASVGDRVTITCRASQDISSYLNWYQQKPGKAPKLLIYYTSRLHSGVPSRFSGSGSGTDFTFTISSLQPEDIATYYCQQGNTLPYTFGQGTKVEIKR
notes: IgG1; also called WT-IgG1; wild type humanized anti-IL-6 receptor antibody
